Tests used:
Assay in all cases: cell-based or functional assay
[1] = biological target: T1, zcyto20 (human IL-28A) (human) (UniProt Q8IZJ0)
T1 sequence: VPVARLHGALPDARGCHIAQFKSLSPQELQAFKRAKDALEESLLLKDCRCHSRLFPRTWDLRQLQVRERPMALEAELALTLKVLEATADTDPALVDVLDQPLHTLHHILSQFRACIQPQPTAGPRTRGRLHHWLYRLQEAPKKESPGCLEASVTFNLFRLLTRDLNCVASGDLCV

[2] = biological target: T2, zcyto24 (mouse IL-28A) (mouse) (UniProt Q4VK74)
T2 sequence: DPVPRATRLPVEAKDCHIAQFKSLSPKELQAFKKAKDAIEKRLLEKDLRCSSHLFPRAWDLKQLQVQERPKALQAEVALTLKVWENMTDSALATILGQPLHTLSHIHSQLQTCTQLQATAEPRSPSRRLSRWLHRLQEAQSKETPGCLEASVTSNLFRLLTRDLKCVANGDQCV

[3] = biological target: zcyto21 (human IL-29) (human) (UniProt Q8IU54)
zcyto21 (human IL-29) (human), sequence (Q8IU54 20-200): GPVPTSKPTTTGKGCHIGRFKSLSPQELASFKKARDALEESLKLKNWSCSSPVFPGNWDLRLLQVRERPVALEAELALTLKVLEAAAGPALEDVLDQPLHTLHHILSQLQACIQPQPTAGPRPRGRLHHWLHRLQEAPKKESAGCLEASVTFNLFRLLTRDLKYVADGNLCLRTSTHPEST

B1: human zcytor19-Fc homodimer (Fc fusion, not shown: a dimerising Fc or GST)
chain: RPRLAPPQNVTLLSQNFSVYLTWLPGLGNPQDVTYFVAYQSSPTRRRWREVEECAGTKELLCSMMCLKKQDLYNKFKGRVRTVSPSSKSPWVESEYLDYLFEVEPAPPVLVLTQTEEILSANATYQLPPCMPPLDLKYEVAFWKEGAGNKTLFPVTPHGQPVQITLQPAASEHHCLSARTIYTFSVPKYSKFSKPTCFLLEVPEAN
- Percent Inhibition of Ligand-induced Interferon Stimulated Response Element (ISRE) Signaling by Soluble Receptors [1]: 92%
- Percent Inhibition of Ligand-induced Interferon Stimulated Response Element (ISRE) Signaling by Soluble Receptors [2]: 90%
- Percent Inhibition of Ligand-induced Interferon Stimulated Response Element (ISRE) Signaling by Soluble Receptors [3]: 45%
